Data on four proteins can be found in PMC7750480, “A hybrid approach reveals the allosteric regulation of GTP cyclohydrolase I” (Proceedings of the National Academy of Sciences of the …, 2020).

Holding throughout (type): biochemical, human
What all share (settings): other: substrate GTP 1-2000 µM, without GFRP, not stimulated/inhibited; pH 7.5; 37.0 °C

Substrate in series [1]: Nc1nc2c(ncn2[C@@H]2O[C@H](COP(=O)(O)OP(=O)(O)OP(=O)(O)O)[C@@H](O)[C@H]2O)c(=O)[nH]1
The series can be described thus: enzyme kinetics, H2NTP formation at 330 nm, F122A GCH1. How it is done: (§1) In order to test the role of the key residues H126, D127, E128, R235, and R241 involved in allosteric inhibitor binding and conformational change, various point mutants were prepared and tested for their ability to be stimulated and inhibited by effector molecules in the presence or absence of GFRP. […] Enzyme activity was evaluated using an activity assay measuring the formation of the product H2NTP at 330 nm with increasing GTP concentrations.
(§2) GTPCH-I specific enzyme activity was determined by spectrometric measuring of the concentration of its direct product H2NTP. Synergy H1 (BioTek Instruments) and Gen5 2.01 software were used to evaluate H2NTP concentration and the maximal turnover rate (Vmax) within each measuring interval. H2NTP concentration was measured at 330 nm over a measuring period of 2 h using a measuring interval of 2 min to 4 min at 37 °C. Samples were prepared using 2 μM GTPCH-I, varying concentrations of GTP (1 μM to 2,000 µM) and in the absence or presence of 15 mM phenylalanine, 0.1 mM BH4, or 3 μM GFRP. The assay buffer used was 50 mM Tris/HCl, pH 7.5, 100 mM KCl. The specific enzyme activity (A) was calculated using the path length of 0.15 cm and the extinction coefficient […] = 6,300 M^−1⋅cm^−1 H2NTP. […] All enzymatic data were, at least, measured in triplicate (n = 3).

Substrate in series [2]: Nc1nc2c(ncn2[C@@H]2O[C@H](COP(=O)(O)OP(=O)(O)OP(=O)(O)O)[C@@H](O)[C@H]2O)c(=O)[nH]1
In words: enzyme kinetics, H2NTP formation at 330 nm, D127A GCH1. Here is the method: as §1, §2

Substrate in series [3]: Nc1nc2c(ncn2[C@@H]2O[C@H](COP(=O)(O)OP(=O)(O)OP(=O)(O)O)[C@@H](O)[C@H]2O)c(=O)[nH]1
The series can be described thus: enzyme kinetics, H2NTP formation at 330 nm, R235A-GCH1. How it is done: as §1, §2

Substrate in series [4]: Nc1nc2c(ncn2[C@@H]2O[C@H](COP(=O)(O)OP(=O)(O)OP(=O)(O)O)[C@@H](O)[C@H]2O)c(=O)[nH]1
The series can be described thus: enzyme kinetics, H2NTP formation at 330 nm, R241A-GCH1. How it is done:
as §1, §2

Residue numbers refer to the chain shown, from its start. Numbers in names are those of the source.

B1: F122A GCH1 (Homo sapiens; F122A) (protein)
chain: PEAKSAQPADGWKGERPRSEEDNELNLPNLAAAYSSILSSLGENPQRQGLLKTPWRAASAMQFFTKGYQETISDVLNDAIADEDHDEMVIVKDIDMFSMCEHHLVPFVGKVHIGYLPNKQVLGLSKLARIVEIYSRRLQVQERLTKQIAVAITEALRPAGVGVVVEATHMCMVMRGVQKMNSKTVTSTMLGVFREDPKTREEFLTLIRS
notes: The hGCH1 (42-250, N-terminal 6xHis Tag and TEV cleavage site); 6xHis (N); TEV cleavage site (N); made in house; host or cells: E. coli BL21(DE3)
For orientation: Km means the substrate concentration at which the rate is half of its maximum. Regarding B1, the Km in series [1] worked out at 434 µM.

B2: D127A GCH1 (Homo sapiens; D127A) (protein)
chain: B1 chain with A81F, D86A
notes: as for B1
Take B2: the Km in series [2] came to 483 µM.

B3: R235A-GCH1 (Homo sapiens; R235A) (protein)
chain: B1 chain with A81F, R194A
notes: as for B1
On to B3, for which the Michaelis-Menten constant (Km) in series [3] turned out to be 328 µM.

B4: R241A-GCH1 (Homo sapiens; R241A) (protein)
chain: B1 chain with A81F, R200A
notes: as for B1
As to B4, the Km in series [4] came to 306 µM.
